6 molecules from patent US20210198368A1 (Novartis, published 2021) can be followed below.

In this assay the target is T1, human CLL1 expressed on cancer cell lines HL60 and U937 (human, UniProt Q5QGZ9 1-265).
T1 sequence (looked up): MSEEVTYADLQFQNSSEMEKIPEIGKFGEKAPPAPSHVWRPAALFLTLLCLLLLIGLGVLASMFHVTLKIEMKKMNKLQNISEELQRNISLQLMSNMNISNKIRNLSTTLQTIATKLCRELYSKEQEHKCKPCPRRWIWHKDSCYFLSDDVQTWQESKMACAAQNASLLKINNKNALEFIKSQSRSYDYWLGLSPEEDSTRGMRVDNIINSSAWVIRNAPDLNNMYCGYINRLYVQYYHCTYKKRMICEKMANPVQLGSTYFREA
Nature of the assay: cell-based or functional assay.

B1: CD3 × CLL1_11 (bispecific antibody)
chain 1: QVQLVQSGGGVVQPGRSLRLSCKASGYTFTRYTMHWVRQAPGKGLEWIGYINPSRGYTNYNQKVKDRFTISRDNSKNTAFLQMDSLRPEDTGVYFCARYYDDHYSLDYWGQGTPVTVSSGGGGSGGGKSKKGGSGGGGSDIQMTQSPSSLSASVGDRVTITCSASSSVSYMNWYQQTPGKAPKRWIYDTSKLASGVPSRFSGSGSGTDYTFTISSLQPEDIATYYCQQWSSNPFTFGQGTKLQITGGGGSDKTHTCPPCPAPELLGGPSVFLFPPKPKDTLMISRTPEVTCVVVAVSHEDPEVKFNWYVDGVEVHNAKTKPREEQYNSTYRVVSVLTVLHQDWLNGKEYKCKVSNKALAAPIEKTISKAKGQPREPQVCTLPPSRDELTKNQVSLSCAVKGFYPSDIAVEWESNGQPENNYKTTPPVLDSDGSFFLVSKLTVDKSRWQQGNVFSCSVMHEALHNHYTQKSLSLSPGK
chain 2: EVQLVQSGGGVVRSGRSLRLSCAASGFTFNSYGLHWVRQAPGKGLEWVALIEYDGSNKYYGDSVKGRFTISRDKSKSTLYLQMDNLRAEDTAVYYCAREGNEDLAFDIWGQGTLVTVSSGGGGSGGGGSGGGGSGGGGSEIVLTQSPSSLSASVGDRVTITCQASQFIKKNLNWYQHKPGKAPKLLIYDASSLQTGVPSRFSGNRSGTTFSFTISSLQPEDVATYYCQQHDNLPLTFGGGTKVEIKGGGGSGSDKTHTCPPCPAPELLGGPSVFLFPPKPKDTLMISRTPEVTCVVVAVSHEDPEVKFNWYVDGVEVHNAKTKPREEQYNSTYRVVSVLTVLHQDWLNGKEYKCKVSNKALAAPIEKTISKAKGQPREPQVYTLPPCRDELTKNQVSLWCLVKGFYPSDIAVEWESNGQPENNYKTTPPVLDSDGSFFLYSKLTVDKSRWQQGNVFSCSVMHEALHNHYTQKSLSLSPGK
B1: the “EC50 (nM), Killing HL60 (T-cell mediated killing of the CLL1-positive cancer cell line)” value (shortened to “EC50 (nM), Killing HL60”) turned out to be 0.03 nM and the “EC50 (nM), NFAT U937 (T-cell activation, Jurkat NFAT luciferase reporter assay)” value (from here on “EC50 (nM), NFAT U937”) is 0.08 nM.

B2: CD3 × CLL1_07 (bispecific antibody)
chain 1: QVQLVQSGGGVVQPGRSLRLSCKASGYTFTRYTMHWVRQAPGKGLEWIGYINPSRGYTNYNQKVKDRFTISRDNSKNTAFLQMDSLRPEDTGVYFCARYYDDHYSLDYWGQGTPVTVSSGGGGSGGGKSKKGGSGGGGSDIQMTQSPSSLSASVGDRVTITCSASSSVSYMNWYQQTPGKAPKRWIYDTSKLASGVPSRFSGSGSGTDYTFTISSLQPEDIATYYCQQWSSNPFTFGQGTKLQITGGGGSDKTHTCPPCPAPELLGGPSVFLFPPKPKDTLMISRTPEVTCVVVAVSHEDPEVKFNWYVDGVEVHNAKTKPREEQYNSTYRVVSVLTVLHQDWLNGKEYKCKVSNKALAAPIEKTISKAKGQPREPQVCTLPPSRDELTKNQVSLSCAVKGFYPSDIAVEWESNGQPENNYKTTPPVLDSDGSFFLVSKLTVDKSRWQQGNVFSCSVMHEALHNHYTQKSLSLSPGK
chain 2: QVQLVESGGGLVQPGGSLRLSCAASGFTFSSYWMSWVRQAPGKGLEWVANINEDGSAKFYVDSVKGRFTISRDNAKNSLYLQMNSLRAEDTAVYFCARDLRSGRYWGQGTLVTVSSGGGGSGGGGSGGGGSEIVLTQSPGTLSLSPGGRATLSCRASQSISGSFLAWYQQKPGQAPRLLIYGASSRATGIPDRFSGSGSGTDFTLTISRLEPEDFAVYYCQQYGSSPPTFGLGTKLEIKGGGGSDKTHTCPPCPAPELLGGPSVFLFPPKPKDTLMISRTPEVTCVVVAVSHEDPEVKFNWYVDGVEVHNAKTKPREEQYNSTYRVVSVLTVLHQDWLNGKEYKCKVSNKALAAPIEKTISKAKGQPREPQVYTLPPCRDELTKNQVSLWCLVKGFYPSDIAVEWESNGQPENNYKTTPPVLDSDGSFFLYSKLTVDKSRWQQGNVFSCSVMHEALHNHYTQKSLSLSPGK
As for B2, the “EC50 (nM), Killing HL60” value was 44.3 nM.

B3: CD3 × CLL1_09 (bispecific antibody)
chain 1: QVQLVQSGGGVVQPGRSLRLSCKASGYTFTRYTMHWVRQAPGKGLEWIGYINPSRGYTNYNQKVKDRFTISRDNSKNTAFLQMDSLRPEDTGVYFCARYYDDHYSLDYWGQGTPVTVSSGGGGSGGGKSKKGGSGGGGSDIQMTQSPSSLSASVGDRVTITCSASSSVSYMNWYQQTPGKAPKRWIYDTSKLASGVPSRFSGSGSGTDYTFTISSLQPEDIATYYCQQWSSNPFTFGQGTKLQITGGGGSDKTHTCPPCPAPELLGGPSVFLFPPKPKDTLMISRTPEVTCVVVAVSHEDPEVKFNWYVDGVEVHNAKTKPREEQYNSTYRVVSVLTVLHQDWLNGKEYKCKVSNKALAAPIEKTISKAKGQPREPQVCTLPPSRDELTKNQVSLSCAVKGFYPSDIAVEWESNGQPENNYKTTPPVLDSDGSFFLVSKLTVDKSRWQQGNVFSCSVMHEALHNHYTQKSLSLSPGK
chain 2: QVQLVQSGAEVKEPGASVKVSCKAPANTFSDHVMHWVRQAPGQRFEWMGYIHAANGGTHYSQKFQDRVTITRDTSANTVYMDLSSLRSEDTAVYYCARGGYNSDAFDIWGQGTMVTVSSGGGGSGGGGSGGGGSGGGGSDIVMTQSPSSVSASVGDRVTITCRASQDISSWLAWYQQKPGKAPKLLIYAASSLQSGVPSRFNGSGSGTDFTLTISSLQPEDFATYYCQQSYSTPLTFGGGTKVEIKGGGGSGSDKTHTCPPCPAPELLGGPSVFLFPPKPKDTLMISRTPEVTCVVVAVSHEDPEVKFNWYVDGVEVHNAKTKPREEQYNSTYRVVSVLTVLHQDWLNGKEYKCKVSNKALAAPIEKTISKAKGQPREPQVYTLPPCRDELTKNQVSLWCLVKGFYPSDIAVEWESNGQPENNYKTTPPVLDSDGSFFLYSKLTVDKSRWQQGNVFSCSVMHEALHNHYTQKSLSLSPGK
In the case of B3, the “EC50 (nM), Killing HL60” value is 0.36 nM and the “EC50 (nM), NFAT U937” value was 1.74 nM.

B4: CD3 × CLL1_06 (bispecific antibody)
chain 1: QVQLVQSGGGVVQPGRSLRLSCKASGYTFTRYTMHWVRQAPGKGLEWIGYINPSRGYTNYNQKVKDRFTISRDNSKNTAFLQMDSLRPEDTGVYFCARYYDDHYSLDYWGQGTPVTVSSGGGGSGGGKSKKGGSGGGGSDIQMTQSPSSLSASVGDRVTITCSASSSVSYMNWYQQTPGKAPKRWIYDTSKLASGVPSRFSGSGSGTDYTFTISSLQPEDIATYYCQQWSSNPFTFGQGTKLQITGGGGSDKTHTCPPCPAPELLGGPSVFLFPPKPKDTLMISRTPEVTCVVVAVSHEDPEVKFNWYVDGVEVHNAKTKPREEQYNSTYRVVSVLTVLHQDWLNGKEYKCKVSNKALAAPIEKTISKAKGQPREPQVCTLPPSRDELTKNQVSLSCAVKGFYPSDIAVEWESNGQPENNYKTTPPVLDSDGSFFLVSKLTVDKSRWQQGNVFSCSVMHEALHNHYTQKSLSLSPGK
chain 2: EVQLVESGGGLVKPGGSLRLSCAASGFTFSSYSMNWVRQAPGKGLEWVSSISSSSSYIYYADSVKGRFTISRDNAKNSLYLQMNSLRAEDTAVYYCARDPSSSGSYYMEDSYYYGMDVWGQGTTVTVSSGGGGSGGGGSGGGGSNFMLTQPHSVSESPGKTVTISCTGSSGSIASNYVQWYQQRPGSAPTTVIYEDNQRPSGVPDRFSGSIDSSSNSASLTISGLKTEDEADYYCQSYDSSNQVVFGGGTKLTVLGGGGSGSDKTHTCPPCPAPELLGGPSVFLFPPKPKDTLMISRTPEVTCVVVAVSHEDPEVKFNWYVDGVEVHNAKTKPREEQYNSTYRVVSVLTVLHQDWLNGKEYKCKVSNKALAAPIEKTISKAKGQPREPQVYTLPPCRDELTKNQVSLWCLVKGFYPSDIAVEWESNGQPENNYKTTPPVLDSDGSFFLYSKLTVDKSRWQQGNVFSCSVMHEALHNHYTQKSLSLSPGK
With B4, the “EC50 (nM), Killing HL60” value was 1.27 nM and the “EC50 (nM), NFAT U937” value was 0.96 nM.

B5: CD3 × CLL1_02 (bispecific antibody)
chain 1: QVQLVQSGGGVVQPGRSLRLSCKASGYTFTRYTMHWVRQAPGKGLEWIGYINPSRGYTNYNQKVKDRFTISRDNSKNTAFLQMDSLRPEDTGVYFCARYYDDHYSLDYWGQGTPVTVSSGGGGSGGGKSKKGGSGGGGSDIQMTQSPSSLSASVGDRVTITCSASSSVSYMNWYQQTPGKAPKRWIYDTSKLASGVPSRFSGSGSGTDYTFTISSLQPEDIATYYCQQWSSNPFTFGQGTKLQITGGGGSDKTHTCPPCPAPELLGGPSVFLFPPKPKDTLMISRTPEVTCVVVAVSHEDPEVKFNWYVDGVEVHNAKTKPREEQYNSTYRVVSVLTVLHQDWLNGKEYKCKVSNKALAAPIEKTISKAKGQPREPQVCTLPPSRDELTKNQVSLSCAVKGFYPSDIAVEWESNGQPENNYKTTPPVLDSDGSFFLVSKLTVDKSRWQQGNVFSCSVMHEALHNHYTQKSLSLSPGK
chain 2: EVQLVESGGGVVQPGGSLRLSCAASGFTFDDYAMHWVRQAPGKGLEWVSLISGDGGSTYYADSVKGRFTISRDNSKNTLYLQMNSLRVEDTAVYYCARVFDSYYMDVWGKGTTVTVSSGGGGSGGGGSGSGGSEIVLTQSPLSLPVTPGQPASISCRSSQSLVYTDGNTYLNWFQQRPGQSPRRLIYKVSNRDSGVPDRFSGSGSDTDFTLKISRVEAEDVGIYYCMQGTHWSFTFGQGTRLEIKGGGGSDKTHTCPPCPAPELLGGPSVFLFPPKPKDTLMISRTPEVTCVVVAVSHEDPEVKFNWYVDGVEVHNAKTKPREEQYNSTYRVVSVLTVLHQDWLNGKEYKCKVSNKALAAPIEKTISKAKGQPREPQVYTLPPCRDELTKNQVSLWCLVKGFYPSDIAVEWESNGQPENNYKTTPPVLDSDGSFFLYSKLTVDKSRWQQGNVFSCSVMHEALHNHYTQKSLSLSPGK
Turning to B5, the “EC50 (nM), Killing HL60” value was above 300 nM.

B6: CD3 × CLL1_13 (bispecific antibody)
chain 1: QVQLVQSGGGVVQPGRSLRLSCKASGYTFTRYTMHWVRQAPGKGLEWIGYINPSRGYTNYNQKVKDRFTISRDNSKNTAFLQMDSLRPEDTGVYFCARYYDDHYSLDYWGQGTPVTVSSGGGGSGGGKSKKGGSGGGGSDIQMTQSPSSLSASVGDRVTITCSASSSVSYMNWYQQTPGKAPKRWIYDTSKLASGVPSRFSGSGSGTDYTFTISSLQPEDIATYYCQQWSSNPFTFGQGTKLQITGGGGSDKTHTCPPCPAPELLGGPSVFLFPPKPKDTLMISRTPEVTCVVVAVSHEDPEVKFNWYVDGVEVHNAKTKPREEQYNSTYRVVSVLTVLHQDWLNGKEYKCKVSNKALAAPIEKTISKAKGQPREPQVCTLPPSRDELTKNQVSLSCAVKGFYPSDIAVEWESNGQPENNYKTTPPVLDSDGSFFLVSKLTVDKSRWQQGNVFSCSVMHEALHNHYTQKSLSLSPGK
chain 2: QVQLVQSGAEVKKSGASVKVSCKASGYPFTGYYIQWVRQAPGQGLEWMGWIDPNSGNTGYAQKFQGRVTMTRNTSISTAYMELSSLRSEDTAVYYCASDSYGYYYGMDVWGQGTLVTVSSGGGGSGGGGSGGGGSGGGGSDIQMTQSPSSLSASVGDRVTFTCRASQGISSALAWYQQKPGKPPKLLIYDASSLESGVPSRFSGSGSGTDFTLTISSLQPEDFATYYCQQFNNYPLTFGGGTKVEIKGGGGSGSDKTHTCPPCPAPELLGGPSVFLFPPKPKDTLMISRTPEVTCVVVAVSHEDPEVKFNWYVDGVEVHNAKTKPREEQYNSTYRVVSVLTVLHQDWLNGKEYKCKVSNKALAAPIEKTISKAKGQPREPQVYTLPPCRDELTKNQVSLWCLVKGFYPSDIAVEWESNGQPENNYKTTPPVLDSDGSFFLYSKLTVDKSRWQQGNVFSCSVMHEALHNHYTQKSLSLSPGK
Consider B6, for which the “EC50 (nM), Killing HL60” value worked out at 4.24 nM and the “EC50 (nM), NFAT U937” value was determined as 2.16 nM.
